Assay results reported in EP4803541A1 (Changchun Genescience Pharmaceutical Co., Ltd., dated 2026).
Numbering of substitutions follows the chain as printed. Names may count otherwise.

B1: M11 (First round) (VHH)
VHH: QVQLVESGGGLAQAGGSLRLSCAVSGMPEFARAMGWFRQAPGKERELLAAIEGIGATTYYADSVKGRFTISRDDAANTVLLQMNSLKPDDTAVYYCAAAFSVTIPTRARHWVDWGQGTLVTVSS
B2: M34 (First round) (VHH)
VHH: B1 VHH with N77S, Q116P
B3: M28 (First round) (VHH)
VHH: B1 VHH with R19T, Q116P
B4: M22 (First round) (VHH)
VHH: B1 VHH with L11K, Q116P
B5: M24 (First round) (VHH)
VHH: B1 VHH with W111F, Q116P
B6: M33 (First round) (VHH)
VHH: B1 VHH with A56D, Q116P
B7: M45 (First round) (VHH)
VHH: B1 VHH with Q116P
B8: M20 (First round) (VHH)
VHH: B1 VHH with L48V, Q116P
B9: M64 (Second round) (VHH)
VHH: B1 VHH with A14P, Q116P
notes: Entry already carries A15P; tail DDDDK-SGGRGS-HHHHHH
B10: M69 (Second round) (VHH)
VHH: B1 VHH with P28T, Q116P
notes: Entry already carries P29T; tail DDDDK-SGGRGS-HHHHHH
B11: WT (with tag), unmodified GH single-domain antibody molecule (VHH)
VHH: B1 VHH with Q116P
B12: M74 (Second round) (VHH)
VHH: B1 VHH with A56D, R109E, Q116P
notes: Entry already carries A57D; G134R; R100eE); tail DDDDK-SGGRGS-HHHHHH
B13: M78 (Second round) (VHH)
VHH: B1 VHH with A56D, D113Y, Q116P
notes: Entry already carries A57D; G134R; D102Y); tail DDDDK-SGGRGS-HHHHHH
B14: M31 (First round) (VHH)
VHH: B1 VHH with R109E, Q116P
notes: tail DDDDK-SGGGGS-HHHHHH
B15: M29 (First round) (VHH)
VHH: B1 VHH with T57K, Q116P
notes: tail DDDDK-SGGGGS-HHHHHH
B16: M25 (First round) (VHH)
VHH: B1 VHH with V112D, Q116P
notes: tail DDDDK-SGGGGS-HHHHHH
B17: M8 (First round) (VHH)
VHH: B1 VHH with D113Y, Q116P
notes: tail DDDDK-SGGGGS-HHHHHH
B18: M53 (Second round) (VHH)
VHH: B1 VHH with A56D, R109E, Q116P
notes: Entry already carries A57D; R100eE); tail DDDDK-SGGGGS-HHHHHH
B19: M88 (Second round) (VHH)
VHH: B1 VHH with L48V, A56D, R109E, Q116P
notes: Entry already carries A57D; G134R; R110E; A55D; R100eE); tail DDDDK-SGGRGS-HHHHHH
B20: M76 (Second round) (VHH)
VHH: B1 VHH with A56D, W111F, Q116P
notes: Entry already carries A57D; G134R; W100gF); tail DDDDK-SGGRGS-HHHHHH
B21: M75 (Second round) (VHH)
VHH: B1 VHH with A56D, R109E, D113Y, Q116P
notes: Entry already carries A57D; R110E; R100eE; D102Y); tail DDDDK-SGGGGS-HHHHHH
B22: M77 (Second round) (VHH)
VHH: B1 VHH with A56D, R109E, W111F, Q116P
notes: Entry already carries A57D; R110E; R100eE; W100gF); tail DDDDK-SGGGGS-HHHHHH
B23: M66 (Second round) (VHH)
VHH: B1 VHH with A14P, P28T, Q116P
notes: Entry already carries P29T; P28T); tail DDDDK-SGGGGS-HHHHHH
B24: M67 (Second round) (VHH)
VHH: B1 VHH with A14P
notes: Entry already carries A15P; P105Q); tail DDDDK-SGGGGS-HHHHHH
B25: M72 (Second round) (VHH)
VHH: B1 VHH with A56D, W111F, D113Y, Q116P
notes: Entry already carries A57D; D114Y; W100gF; D102Y); tail DDDDK-SGGGGS-HHHHHH
B26: M81 (Second round) (VHH)
VHH: B1 VHH with A56D, R109E
notes: Entry already carries A57D; G134R; P117Q; R100eE; P105Q); tail DDDDK-SGGRGS-HHHHHH
B27: M83 (Second round) (VHH)
VHH: B1 VHH with A56D, R109E, W111F
notes: Entry already carries A57D; P117Q; R110E; R100eE; W100gF; P105Q); tail DDDDK-SGGGGS-HHHHHH
B28: M59 (Second round) (VHH)
VHH: B1 VHH with P28T, A56D, Q116P
notes: Entry already carries A57D; A55D); tail DDDDK-SGGGGS-HHHHHH
B29: M79 (Second round) (VHH)
VHH: B1 VHH with L48V, A56D, R109E, Q116P
notes: Entry already carries A57D; R110E; A55D; R100eE); tail DDDDK-SGGGGS-HHHHHH
B30: M82 (Second round) (VHH)
VHH: B1 VHH with A56D, R109E, D113Y, Q116P
notes: Entry already carries A57D; G134R; R110E; R100eE; D102Y); tail DDDDK-SGGRGS-HHHHHH
B31: M68 (Second round) (VHH)
VHH: B1 VHH with A14P, R19T, Q116P
notes: Entry already carries A15P; R19T); tail DDDDK-SGGGGS-HHHHHH
B32: M89 (Second round) (VHH)
VHH: B1 VHH with A56D, R109E, W111F, Q116P
notes: Entry already carries A57D; G134R; R110E; R100eE; W100gF); tail DDDDK-SGGRGS-HHHHHH
B33: M71 (Second round) (VHH)
VHH: B1 VHH with A56D, R109E
notes: Entry already carries A57D; P117Q; R100eE; P105Q); tail DDDDK-SGGGGS-HHHHHH
B34: M70 (Second round) (VHH)
VHH: B1 VHH with A14P, R109E, Q116P
notes: Entry already carries A15P; R100eE); tail DDDDK-SGGGGS-HHHHHH

The binders below were run against rhGH protein (UniProt: P01241) (human) (UniProt P01241) (assay: ELISA on coated rhGH, anti-6*His HRP; sample after 0.5M NaOH 24h, against WT).
Sequence of rhGH protein (UniProt: P01241) (human) (UniProt P01241) (P01241 27-217 limits assumed, one chain of several): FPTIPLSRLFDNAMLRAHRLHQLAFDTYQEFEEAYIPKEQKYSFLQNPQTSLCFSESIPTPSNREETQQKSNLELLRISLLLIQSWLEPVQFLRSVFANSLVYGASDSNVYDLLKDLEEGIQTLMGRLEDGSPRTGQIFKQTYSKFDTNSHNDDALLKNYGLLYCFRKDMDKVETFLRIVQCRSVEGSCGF
Set-up: unit not given beside the values

Binder | EC50 against that of the WT after 0.5M alkali (% higher than WT)
B1 | 50
B2 | 50
B3 | 50
B4 | 50
B5 | 50
B6 | 50
B7 | 50
B8 | 50
B9 | 50
B10 | 50

These binders were tested against GH (GH stock solution) (UniProt P01241) (assay: loss of dynamic binding capacity of the conjugated medium for GH after 0.5M NaOH 24h).
Sequence of GH (GH stock solution) (P01241 27-217 limits assumed): as the sequence (P01241 27-217 limits assumed, one chain of several) above

Binder | residual DBC (a decrease of DBC) [%]
B11 | 85
B8 | < 49
B12 | < 49
B13 | < 49

What follows are binders tested against T1, rhGH protein (UniProt: P01241) (human, UniProt P01241 27-217) (assay: ELISA on coated rhGH, anti-6*His HRP; sample after 0.3 M NaOH 24h).
T1 construct: Coated at 5 ug/ml in the ELISA; also called human growth hormone
T1 sequence (P01241 27-217 limits assumed, one chain of several): as above

Binder | binding result
B14 | binds
B15 | binds
B16 | binds
B17 | binds

Each binder was assayed against T1, rhGH protein (UniProt: P01241) (assay: ELISA on coated rhGH; sample after 0.5M NaOH 24h).

Binder | binding result
B18 | binds
B19 | binds
B20 | binds
B21 | binds
B22 | binds
B23 | binds
B24 | binds
B12 | binds
B25 | binds
B9 | binds
B26 | binds
B27 | binds
B28 | binds
B13 | binds
B29 | binds
B30 | binds
B31 | binds
B32 | binds
B33 | binds
B34 | binds
B10 | binds

Each binder was assayed against GH (GH stock solution) (UniProt P01241) (assay: affinity chromatography, VHH-conjugated medium loaded with GH stock solution; medium in 0.5M NaOH 24h).

Binder | dynamic binding capacity at 10% breakthrough
B11 | 3.39
B7 | 4.29
B8 | 10.2
B24 | 4.23
B12 | 8.24
B13 | 9.06
B31 | 5.41

Each binder was assayed against GH (GH stock solution) (UniProt P01241) (assay: affinity chromatography, VHH-conjugated medium loaded with GH stock solution; medium in 0.1M NaOH 32h).

Binder | dynamic binding capacity at 10% breakthrough
B11 | 14.7
B7 | 16.2
B8 | 16.9
B24 | 14.9
B12 | 15.4
B13 | 15.4
B31 | 15.4

What follows are binders tested against GH (GH stock solution) (UniProt P01241) (assay: affinity chromatography, VHH-conjugated medium loaded with GH stock solution; medium in 0.1M NaOH 0h).

Binder | dynamic binding capacity at 10% breakthrough
B11 | 22.3
B7 | 18.2
B8 | 19.6
B24 | 15.9
B12 | 15
B13 | 16.3
B31 | 15.9

The binders below were run against GH (GH stock solution) (UniProt P01241) (assay: affinity chromatography, VHH-conjugated medium loaded with GH stock solution; medium in 0.5M NaOH 6h).

Binder | dynamic binding capacity at 10% breakthrough
B11 | 5.78
B7 | 7.6
B8 | 14.3
B24 | 10.2
B12 | 13.2
B13 | 13.5
B31 | 12.2

Each binder was assayed against GH (GH stock solution) (UniProt P01241) (assay: loss of dynamic binding capacity of the conjugated medium for GH after 0.1M NaOH 32h).

Binder | DBC decay rate [%]
B11 | 35
B8 | < 6
B12 | < 6
B13 | < 6

These binders were tested against GH (GH stock solution) (UniProt P01241) (assay: affinity chromatography, VHH-conjugated medium loaded with GH stock solution; medium in 0.1M NaOH 24h).

Binder | dynamic binding capacity at 10% breakthrough
B11 | 16.2
B7 | 17.4
B8 | 18
B24 | 16.2
B12 | 15.8
B13 | 16.3
B31 | 16.2

These binders were tested against GH (GH stock solution) (UniProt P01241) (assay: affinity chromatography, VHH-conjugated medium loaded with GH stock solution; medium in 0.5M NaOH 0h).

Binder | dynamic binding capacity at 10% breakthrough
B11 | 22.3
B7 | 18.2
B8 | 19.6
B24 | 15.9
B12 | 14.7
B13 | 16.3
B31 | 15.3
